As usually defined, the Km is the concentration of substrate that gives half-maximal velocity. The kcat is the number of substrate molecules converted per active site and unit of time at saturation.

The text below walks through data of publication PMC3320582, “Group A Streptococcus Secreted Esterase Hydrolyzes Platelet-Activating Factor to Impede Neutrophil Recruitment and Facilitate Innate Immune Evasion” (PLoS Pathogens, 2012).

This data set has as its system [H][C@@](COCCCCCCCCCCCCCCCC)(COP(=O)([O-])OCC[N+](C)(C)C)SC(C)=O. The experiment in a line: purified protein. The settings on record: 20 mM Tris-HCl, pH 8.0, DTNB, room temperature, substrate concentrations corrected for early hydrolysis.

In the case of “SsE (Streptococcus pyogenes serotype M1)”, the Michaelis-Menten constant (Km) worked out at 7.0 µM and the kcat was found to be 69.6 s⁻¹.
